Laboratory results reported in US20150344570A1 (published 2015).

B1: GpH7-A5/GpH7-B3 variant A330_19Q/GpL16-k0 (antibody, human IgG1, kappa)
heavy 1: not shown
heavy 2: not shown
light: DIVMTQSPLSLPVTPGEPASISCQASESLVHSNRNTYLHWYLQKPGQSPQLLIYKVSNRFSGVPDRFSGSGSGTDFTLKISRVEAEDVGVYYCSQNTHVPPTFGQGTKVEIERTVAAPSVFIFPPSDEQLKSGTASVVCLLNNFYPREAKVQWKVDNALQSGNSQESVTEQDSKDSTYSLSSTLTLSKADYEKHKVYACEVTHQGLSSPVTKSFNRGEC
notes: also called He Ab A330_19Q
B2: GpH7-A5/GpH7-B3 variant K334_19Q/GpL16-k0 (antibody, human IgG1, kappa)
heavy 1: not shown
heavy 2: not shown
light: B1 light
notes: also called He Ab K334_19Q
B3: GpH7-A5/GpH7-B3 variant L234_15Y/GpL16-k0 (antibody, human IgG1, kappa)
heavy 1: not shown
heavy 2: not shown
light: B1 light
notes: also called He Ab L234_15Y
B4: GpH7-A5/GpH7-B3 variant S239_08L/GpL16-k0 (antibody, human IgG1, kappa)
heavy 1: not shown
heavy 2: not shown
light: B1 light
notes: also called He Ab S239_08L
B5: GpH7-A5/GpH7-B3 variant L234_20W/GpL16-k0 (antibody, human IgG1, kappa)
heavy 1: not shown
heavy 2: not shown
light: B1 light
notes: also called He Ab L234_20W
B6: GpH7-A5/GpH7-B3 variant S239_10E/GpL16-k0 (antibody, human IgG1, kappa)
heavy 1: not shown
heavy 2: not shown
light: B1 light
notes: also called He Ab S239_10E
B7: GpH7-A5/GpH7-B3 variant G236_04F/GpL16-k0 (antibody, human IgG1, kappa)
heavy 1: not shown
heavy 2: not shown
light: B1 light
notes: also called He Ab G236_04F
B8: GpH7-A5/GpH7-B3 variant E333_04F/GpL16-k0 (antibody, human IgG1, kappa)
heavy 1: not shown
heavy 2: not shown
light: B1 light
notes: also called He Ab E333_04F
B9: GpH7-A5/GpH7-B3 variant I336_03V/GpL16-k0 (antibody, human IgG1, kappa)
heavy 1: not shown
heavy 2: not shown
light: B1 light
notes: also called He Ab I336_03V
B10: GpH7-A5/GpH7-B3 variant S267_10E/GpL16-k0 (antibody, human IgG1, kappa)
heavy 1: not shown
heavy 2: not shown
light: B1 light
notes: also called He Ab S267_10E
B11: GpH7-A5/GpH7-B3 variant K334_13S/GpL16-k0 (antibody, human IgG1, kappa)
heavy 1: not shown
heavy 2: not shown
light: B1 light
notes: also called He Ab K334_13S
B12: GpH7-A5/GpH7-B3 variant I336_10E/GpL16-k0 (antibody, human IgG1, kappa)
heavy 1: not shown
heavy 2: not shown
light: B1 light
notes: also called He Ab I336_10E
B13: GpH7-A5/GpH7-B3 variant I336_18N/GpL16-k0 (antibody, human IgG1, kappa)
heavy 1: not shown
heavy 2: not shown
light: B1 light
notes: also called He Ab I336_18N
B14: GpH7-A5/GpH7-B3 variant E333_08L/GpL16-k0 (antibody, human IgG1, kappa)
heavy 1: not shown
heavy 2: not shown
light: B1 light
notes: also called He Ab E333_08L
B15: GpH7-A5/GpH7-B3 variant K326_01G/GpL16-k0 (antibody, human IgG1, kappa)
heavy 1: not shown
heavy 2: not shown
light: B1 light
notes: also called He Ab K326_01G
B16: GpH7-A5/GpH7-B3 variant L234_04F/GpL16-k0 (antibody, human IgG1, kappa)
heavy 1: not shown
heavy 2: not shown
light: B1 light
notes: also called He Ab L234_04F
B17: GpH7-A5/GpH7-B3 variant K326_12R/GpL16-k0 (antibody, human IgG1, kappa)
heavy 1: not shown
heavy 2: not shown
light: B1 light
notes: also called He Ab K326_12R
B18: GpH7-A5/GpH7-B3 variant K326_07I/GpL16-k0 (antibody, human IgG1, kappa)
heavy 1: not shown
heavy 2: not shown
light: B1 light
notes: also called He Ab K326_07I
B19: GpH7-A5/GpH7-B3 variant E333_14T/GpL16-k0 (antibody, human IgG1, kappa)
heavy 1: not shown
heavy 2: not shown
light: B1 light
notes: also called He Ab E333_14T
B20: GpH7-A5/GpH7-B3 variant G236_14T/GpL16-k0 (antibody, human IgG1, kappa)
heavy 1: not shown
heavy 2: not shown
light: B1 light
notes: also called He Ab G236_14T
B21: GpH7-A5/GpH7-B3 variant E333_13S/GpL16-k0 (antibody, human IgG1, kappa)
heavy 1: not shown
heavy 2: not shown
light: B1 light
notes: also called He Ab E333_13S
B22: GpH7-A5/GpH7-B3 variant S267_09D/GpL16-k0 (antibody, human IgG1, kappa)
heavy 1: not shown
heavy 2: not shown
light: B1 light
notes: also called He Ab S267_09D
B23: GpH7-A5/GpH7-B3 variant G236_15Y/GpL16-k0 (antibody, human IgG1, kappa)
heavy 1: not shown
heavy 2: not shown
light: B1 light
notes: also called He Ab G236_15Y

Target: FcγRIIa H (human, UniProt P12318 34-217)
Sequence (P12318 34-217): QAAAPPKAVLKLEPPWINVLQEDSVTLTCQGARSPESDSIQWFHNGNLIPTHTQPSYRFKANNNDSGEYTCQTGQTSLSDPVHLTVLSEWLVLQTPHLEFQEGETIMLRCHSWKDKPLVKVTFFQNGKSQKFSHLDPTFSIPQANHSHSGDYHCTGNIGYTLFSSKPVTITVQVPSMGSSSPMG
Test: SPR Biacore, captured antibody, FcγR analyte; vs GpH7-A5/GpH7-B3/GpL16-k0 = 100

Binder | He/Con_2aH
B1 | 102 % of control
B2 | 101 % of control
B3 | 120 % of control
B4 | 105 % of control
B5 | 114 % of control
B6 | 112 % of control
B7 | 118 % of control
B8 | 102 % of control
B9 | 102 % of control
B10 | 102 % of control
B11 | 102 % of control
B12 | 102 % of control
B13 | 103 % of control
B14 | 102 % of control
B15 | 100 % of control
B16 | 120 % of control
B17 | 101 % of control
B18 | 100 % of control
B19 | 100 % of control
B20 | 103 % of control
B21 | 101 % of control
B22 | 105 % of control
B23 | 136 % of control
